Experimental findings from patent US12630596B2, “Engineered lysin-human defensin protein” (priority 2018, dated 2026) are described below.

Entries after “also recorded” stand apart in the source; their conditions may differ.

For this series, the system named is C. difficile R20291 spores. Description: Treatment efficacy in the mouse model of CDI. The format is in vivo, C57BL/6 mice. The settings on record: mice. The protocol:
After 5 days of antibiotic pretreatment, mice were given autoclaved water for 2 days, followed by a single dose of clindamycin (10 mg/kg) intraperitoneally, 1 day before (day-1) challenge with C. difficile R20291 spores by gavage (day 0). The first group (R20291+PB) was infected with 10^6 C. difficile R20291 spores on day 0, and was given PBS (PB) by gavage at 4 h after spore gavage, followed by administration of PB by gavage twice a day from the first day (day 1) to the seventh day (day 7) after spore gavage. The second group (LHD+R20291) was given 400 μg LHD by gavage at 4 h after spore gavage, followed by treatments of 400 μg LHD by gavage twice a day from day 1 to day 7 after spore gavage.
C57BL/6 mice (6-week-old) were purchased from Charles River Laboratories, MA. The mice were housed in groups of 5 animals per cage under the same conditions. All studies followed the Guide for the Care and Use of Laboratory Animals of the National Institutes of Health, and were approved by the Institutes Animal Care and Use Committee (IACUC) at University of South Florida under the animal protocol number 1S00003756. Mouse model of CDI was established as described previously (Zhang, Zhao et al. 2015). The experimental design is illustrated in FIG. 6. Briefly, twenty BL6/C57 female mice were divided into two groups (n=10). Before challenge, mice were pre-treated with antibiotics mixture (ampicillin (200 mg/kg), kanamycin (40 mg/kg), gentamicin (3.5 mg/kg), colistin (4.2 mg/kg), metronidazole (21.5 mg/kg) and vancomycin (4.5 mg/kg)) in drinking water for five days. After that, all mice were given autoclaved water for 2 days, followed by a single dose of clindamycin (10 mg/kg) intraperitoneally 1 day before (day-1) challenge with C. difficile R20291 spores at 10^6 by gavage (day 0). At 4-hr post infection, one group of mice (R20291+LHD) were given a dose of 400 μg LHD in 200 μL of PBS by gavage, and another group of mice (R20291+PB) received sterilized PBS as control. From the first day (day 1) to the seventh day (day 7) after infection, mice were given a dose of 400 μg LHD or PBS by gavage twice a day. Weight changes, diarrhea, and survivals of the mice were recorded during the 7-day monitoring period. Fecal samples from mice were collected at days 0, 1, 3, 5, and 7 post challenge for quantitating C. difficile spores and TcdA/TcdB concentration.
Fecal samples were collected on days 1, 3, 5, 7 post-infection. 50 mg of feces were dissolved with 500 μl sterile MilliQ water for 16 h at 4° C., and then treated with 500 μl of purified ethanol (Sigma-Aldrich) for 60 min at room temperature to kill vegetative cells. Samples were vortexed, serially diluted and plated onto selective medium supplemented with taurocholate (0.1% w/v), Cefoxitin (16 μg/mL), L-cycloserine (250 μg/mL). The plates were incubated anaerobically at 37° C. for 48 h, colonies counted and results expressed as the CFU/gram of feces.
After challenges with C. difficile spores, feces were collected and dissolved in an equal volume (g/ml) of sterile PBS containing protease inhibitor cocktail and the supernatants were collected after centrifugation and stored at −80° C. TcdA/TcdB concentrations in the fecal samples of […] were determined by ELISA. Brieflly, 96-well Costar microplates were coated with 100 μl of anti-TcdA antibody (1 μg/ml) and anti-TcdB antibody (1 μg/ml) overnight in phosphate-buffered saline (PBS) at 4° C. On the next day, each well was blocked with 300 ul of blocking buffer (PBS+5% dry milk) at RT for 2 hrs. Next, standards and samples were added to each well (100 μl) in duplicate and incubated for 90 min at 25° C. After another set of washes, HRP-chicken anti-C. difficile Toxin A or B (1:5,000 dilution in PBS, Gallus Immunotech, Shirley, MA) was added to wells for 30 min at RT. A final set of 3 washes preceded the addition of the TMB Microwell Peroxidase Substrate for 20 minutes at RT in the dark. […]

[1] abbreviates: 400 μg LHD by gavage twice a day, vs PBS.
Where [2] appears, read: R20291 spores, 400 μg LHD by gavage twice a day.

B1: LHD: Fusion of phage phiC2 lysin catalytic domain (LCD, 179aa), (GGGGS)3 linker and human alpha-defensin 5; SEQ ID NO:1 (protein)
chain: MKICITVGHSILKSGACTSADGVVNEYQYNKSLAPVLADTFRKEGHKVDVIICPEKQFKTKNEEKSYKIPRVNSGGYDLLIELHLNASNGQGKGSEVLYYSNKGLEYATRICDKLGTVFKNRGAKLDKRLYILNSSKPTAVLIESFFCDNKEDYDKAKKLGHEGIAKLIVEGVLNKNINGGGGSGGGGSGGGGSATCYCRTGRCATRESLSGVCEISGRLYRLCCR
Turning to B1, under setting [1], the “number of C. difficile spores in feces” value is “significantly decreased” and the “toxin-level in feces (TcdA, TcdB)” value is listed as “significantly decreased”. Also, the survival entry (7-day experimental period, 400 μg LHD by gavage twice a day) is listed as “all mice receiving the treatment of LHD survived”. Besides, under setting [2], the diarrhea rate is 60% and the duration of diarrhea was 3 days. Besides, where the note is “R20291 spores, 400 μg LHD by gavage twice a day, vs PBS”, the weight loss result is “decreased both weight loss and diarrhea rate significantly; also recorded: significantly less weight”. Under “from 3 dpi to 7 dpi, vs PBS”, the weight recovery entry is “slower”.
